Tests used:
[1] = target: T1, His-tagged soluble human PD-1 (human, UniProt Q15116 25-170); experiment: ELISA; soluble human PD-1 coated; goat anti-human-Fcgamma-HRP, PICO chemiluminescent substrate
T1 construct: also called hPD-1-His; shPD-1
Source text: FIGS. 8A-8D show the results of ELISA studies measuring the binding of serially diluted binding molecules to human CTLA-4 and human PD-1. […] Goat anti-human-Fc-HRP (1:10,000) was employed as the secondary detection molecule to detect binding. FIGS. 8C-8D show the results of a study on the effect of altering orientations and binding domains on binding. […] Goat anti-human-Fcγ-HRP was employed as the secondary detection molecule to detect binding using PICO chemiluminescent substrate.
Goat anti-human-Fcγ-HRP was employed as the secondary detection molecule to detect binding using PICO chemiluminescent substrate.

[2] = target: T2, His-tagged soluble cynomolgus monkey CTLA-4 (cynomolgus monkey, UniProt G7PL88 36-161); experiment: BIACORE (SPR); His-tagged soluble cynomolgus monkey CTLA-4 captured on anti-PentaHis, binding molecule 12.5-200 nM as analyte; affinity by 1:1 Langmuir binding model
T2 construct: extracellular domain; also called Cyno CTLA-4
T2 sequence: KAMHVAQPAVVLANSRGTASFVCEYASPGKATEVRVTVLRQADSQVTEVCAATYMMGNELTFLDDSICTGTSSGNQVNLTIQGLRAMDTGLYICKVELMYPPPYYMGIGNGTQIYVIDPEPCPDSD
Experimental: (§1) Briefly, His-tagged soluble CTLA-4 (an extracellular portion of human or cynomolgus monkey CTLA-4 fused to a histidine-containing peptide) was captured on immobilized anti-PentaHis and then different concentrations (12.5-200 nM) of the CTLA-4 binding molecules were passed over the immobilized CTLA-4 proteins. The kinetics of binding were determined via BIACORE® analysis (affinity by 1:1 Langmuir binding model (simultaneous ka/kd); or avidity by separate ka/kd 1:1 fit).

[3] = target: T2, His-tagged soluble cynomolgus monkey …; experiment: BIACORE (SPR); His-tagged soluble cynomolgus monkey CTLA-4 captured on anti-PentaHis, binding molecule 12.5-200 nM as analyte; avidity by separate ka/kd 1:1 fit
Experimental: as §1

[4] = target: T3, human CTLA-4 expressed on the cell surface (human, UniProt P16410 36-223); experiment: FACS on Jurkat cells which express huCTLA-4 but not PD-1, anti-human Fc secondary
T3 construct: also called huCTLA-4; CHO cells expressing human CTLA-4
T3 sequence: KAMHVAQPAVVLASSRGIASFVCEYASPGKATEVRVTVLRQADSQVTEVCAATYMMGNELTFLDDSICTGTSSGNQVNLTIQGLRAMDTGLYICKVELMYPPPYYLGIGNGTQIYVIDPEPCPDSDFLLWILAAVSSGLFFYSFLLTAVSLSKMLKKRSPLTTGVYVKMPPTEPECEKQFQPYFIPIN
Source text: Binding of the DART and TRIDENT molecules to human CTLA-4 was detected using anti-human FC secondary Ab (FACS).

T1 sequence (Q15116 25-170 limits assumed): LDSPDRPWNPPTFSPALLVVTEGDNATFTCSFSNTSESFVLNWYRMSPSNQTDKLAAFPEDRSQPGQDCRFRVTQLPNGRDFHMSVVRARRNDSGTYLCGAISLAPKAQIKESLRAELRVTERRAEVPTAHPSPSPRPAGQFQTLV

B1: DART C (bispecific antibody)
chain 1: not shown
chain 2: EIVLTQSPATLSLSPGERATLSCRASESVDNYGMSFMNWFQQKPGQPPKLLIHAASNQGSGVPSRFSGSGSGTDFTLTISSLEPEDFAVYFCQQSKEVPYTFGGGTKVEIKGGGSGGGGQVQLVESGGGVVQPGRSLRLSCAASGFTFSSYTMHWVRQAPGKGLEWVTFISYDGSNKHYADSVKGRFTVSRDNSKNTLYLQMNSLRAEDTAIYYCARTGWLGPFDYWGQGTLVTVSSGGCGGGKVAACKEKVAALKEKVAALKEKVAALKE
notes: Four-chain Fc Region-containing diabody, two PD-1 sites (PD-1 mAb 6-ISQ) and two CTLA-4 sites (CTLA-4 mAb 3), IgG4 Fc, E/K-coils
[1]
  binding result: binds

B2: TRIDENT A (bispecific antibody, human IgG4 S228P, kappa)
chain 1: EIVLTQSPATLSLSPGERATLSCRASESVDNYGMSFMNWFQQKPGQPPKLLIHAASNQGSGVPSRFSGSGSGTDFTLTISSLEPEDFAVYFCQQSKEVPYTFGGGTKVEIKGGGSGGGGQVQLVQSGAEVKKPGASVKVSCKASGYSFTSYWMNWVRQAPGQGLEWIGVIHPSDSETWLDQKFKDRVTITVDKSTSTAYMELSSLRSEDTAVYYCAREHYGTSPFAYWGQGTLVTVSSGGCGGGEVAACEKEVAALEKEVAALEKEVAALEKESKYGPPCPPCPAPEFLGGPSVFLFPPKPKDTLYITREPEVTCVVVDVSQEDPEVQFNWYVDGVEVHNAKTKPREEQFNSTYRVVSVLTVLHQDWLNGKEYKCKVSNKGLPSSIEKTISKAKGQPREPQVYTLPPSQEEMTKNQVSLWCLVKGFYPSDIAVEWESNGQPENNYKTTPPVLDSDGSFFLYSRLTVDKSRWQEGNVFSCSVMHEALHNHYTQKSLSLSLG
chain 2: EIVLTQSPATLSLSPGERATLSCRASESVDNYGMSFMNWFQQKPGQPPKLLIHAASNQGSGVPSRFSGSGSGTDFTLTISSLEPEDFAVYFCQQSKEVPYTFGGGTKVEIKGGGSGGGGQVQLVQSGAEVKKPGASVKVSCKASGYSFTSYWMNWVRQAPGQGLEWIGVIHPSDSETWLDQKFKDRVTITVDKSTSTAYMELSSLRSEDTAVYYCAREHYGTSPFAYWGQGTLVTVSSGGCGGGKVAACKEKVAALKEKVAALKEKVAALKE
heavy: QVQLVESGGGVVQPGRSLRLSCAASGFTFSSYTMHWVRQAPGKGLEWVTFISYDGSNKHYADSVKGRFTVSRDNSKNTLYLQMNSLRAEDTAIYYCARTGWLGPFDYWGQGTLVTVSSASTKGPSVFPLAPCSRSTSESTAALGCLVKDYFPEPVTVSWNSGALTSGVHTFPAVLQSSGLYSLSSVVTVPSSSLGTKTYTCNVDHKPSNTKVDKRVESKYGPPCPPCPAPEFLGGPSVFLFPPKPKDTLYITREPEVTCVVVDVSQEDPEVQFNWYVDGVEVHNAKTKPREEQFNSTYRVVSVLTVLHQDWLNGKEYKCKVSNKGLPSSIEKTISKAKGQPREPQVYTLPPSQEEMTKNQVSLSCAVKGFYPSDIAVEWESNGQPENNYKTTPPVLDSDGSFFLVSRLTVDKSRWQEGNVFSCSVMHEALHNRYTQKSLSLSLG
light: not shown
[2]
  Kd: 260 nM

B3: DART D (bispecific antibody, human IgG4 S228P)
chain 1: EIVLTQSPATLSLSPGERATLSCRASESVDNYGMSFMNWFQQKPGQPPKLLIHAASNQGSGVPSRFSGSGSGTDFTLTISSLEPEDFAVYFCQQSKEVPYTFGGGTKVEIKGGGSGGGGQVQLVESGGGVVQPGRSLRLSCAASGFTFSSYTMHWVRQAPGKGLEWVTFISYDGSNKHYADSVKGRFTVSRDNSKNTLYLQMNSLRAEDTAIYYCARTGWLGPFDYWGQGTLVTVSSGGCGGGEVAACEKEVAALEKEVAALEKEVAALEKESKYGPPCPPCPAPEFLGGPSVFLFPPKPKDTLYITREPEVTCVVVDVSQEDPEVQFNWYVDGVEVHNAKTKPREEQFNSTYRVVSVLTVLHQDWLNGKEYKCKVSNKGLPSSIEKTISKAKGQPREPQVYTLPPSQEEMTKNQVSLTCLVKGFYPSDIAVEWESNGQPENNYKTTPPVLDSDGSFFLYSRLTVDKSRWQEGNVFSCSVMHEALHNHYTQKSLSLSLG
chain 2: not shown
notes: Four-chain Fc Region-containing diabody, two PD-1 sites (PD-1 mAb 6-ISQ) and two CTLA-4 sites (CTLA-4 mAb 3), IgG4 (YTE) Fc, E/K-coils
[3]
  Kd: 4.9 nM

B4: PD-1 mAb 6 G4P (antibody, human IgG4 S228P, kappa, V domains shown)
VH: QVQLVQSGAEVKKPGASVKVSCKASGYSFTSYWMNWVRQAPGQGLEWIGVIHPSDSETWLDQKFKDRVTITVDKSTSTAYMELSSLRSEDTAVYYCAREHYGTSPFAYWGQGTLVTVSS
VL: EIVLTQSPATLSLSPGERATLSCRASESVDNYGMSFMNWFQQKPGQPPKLLIHAASNQGSGVPSRFSGSGSGTDFTLTISSLEPEDFAVYFCQQSKEVPYTFGGGTKVEIKR
notes: IgG4 with stabilized hinge, kappa light chain; also called the PD-1 antibody; parental anti-PD-1 antibody
[4]
  EC50: 6.56 nM
